Reference: the supplement of paper PMC9116672
± gives the standard deviation of the averaged measurements or the uncertainty stated by the source.

Experiments:
[1] = duplex formation free energy ΔG50 (Van't Hoff fit of HRM Tm); higher = less stable duplex; details: temperature for dG: 50 °C, NaCl: 500 mM (unadjusted)
Protocol: (§1)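 Duplex of the listed DNA strand with its complement, in 1x NNE buffer (500 mM NaCl, pH 7.0) with 1x EvaGreen. ΔH and ΔS come from a Van't Hoff linear fit of 1/Tm against ln(CT/4) over 1-20 uM, using HRM Tm values.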

[2] = duplex melting temperature (HRM, EvaGreen); higher = more stable duplex
Protocol: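 Listed DNA strand annealed 1:1 with its complementary strand (95 °C 5 min, 0.1 °C/s to 20 °C). Melted in 1x NNE buffer (500 mM NaCl, 10 mM Na2HPO4, 1 mM EDTA, pH 7.0) with 1x EvaGreen on a LightCycler96 (37 to 97 °C, 0.1 °C/s). Tm is the peak of -dF/dT at the stated total duplex concentration; 4 replicates are averaged. PS oligos are non-stereospecific (Rp/Sp mixtures).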

[3] = duplex formation enthalpy ΔH (Van't Hoff fit of HRM Tm); higher = less exothermic duplex formation; details: temperature for dG: 50 °C, NaCl: 500 mM (unadjusted)
Protocol: as §1

[4] = duplex formation entropy ΔS (Van't Hoff fit of HRM Tm); higher = smaller entropy loss on duplex formation; details: temperature for dG: 50 °C, NaCl: 500 mM (unadjusted)
Protocol: as §1

[5] = backbone: PO-PO (both strands phosphodiester DNA)
[6] = backbone: PS-PO (listed strand fully phosphorothioate, complement phosphodiester)
[7] = backbone: PS-PS (both strands fully phosphorothioate)
[8] = duplex concentration 1 µM, backbone: PS-PS (both strands fully phosphorothioate)
[9] = duplex concentration 2.5 µM, backbone: PO-PO (both strands phosphodiester DNA)
[10] = duplex concentration 2.5 µM, backbone: PS-PO (listed strand fully phosphorothioate, complement phosphodiester)
[11] = duplex concentration 2.5 µM, backbone: PS-PS (both strands fully phosphorothioate)
[12] = duplex concentration 5 µM, backbone: PO-PO (both strands phosphodiester DNA)
[13] = duplex concentration 5 µM, backbone: PS-PO (listed strand fully phosphorothioate, complement phosphodiester)
[14] = duplex concentration 5 µM, backbone: PS-PS (both strands fully phosphorothioate)
[15] = duplex concentration 7.5 µM, backbone: PO-PO (both strands phosphodiester DNA)
[16] = duplex concentration 7.5 µM, backbone: PS-PO (listed strand fully phosphorothioate, complement phosphodiester)
[17] = duplex concentration 7.5 µM, backbone: PS-PS (both strands fully phosphorothioate)
[18] = duplex concentration 10 µM, backbone: PO-PO (both strands phosphodiester DNA)
[19] = duplex concentration 10 µM, backbone: PS-PO (listed strand fully phosphorothioate, complement phosphodiester)
[20] = duplex concentration 10 µM, backbone: PS-PS (both strands fully phosphorothioate)
[21] = duplex concentration 15 µM, backbone: PO-PO (both strands phosphodiester DNA)
[22] = duplex concentration 15 µM, backbone: PS-PO (listed strand fully phosphorothioate, complement phosphodiester)
[23] = duplex concentration 15 µM, backbone: PS-PS (both strands fully phosphorothioate)
[24] = duplex concentration 20 µM, backbone: PO-PO (both strands phosphodiester DNA)
[25] = duplex concentration 20 µM, backbone: PS-PO (listed strand fully phosphorothioate, complement phosphodiester)
[26] = duplex concentration 20 µM, backbone: PS-PS (both strands fully phosphorothioate)

With CAAACTTAGTAATCACGCCCAGCAACCA the “duplex formation free energy ΔG50” value [1, 5] was -21 ± 0.74 kcal/mol, the “duplex formation free energy ΔG50” value [1, 6] was -19 ± 0.52 kcal/mol and the “duplex formation free energy ΔG50” value [1, 7] was -13.9 ± 0.17 kcal/mol. It also gave a duplex melting temperature ([2]; duplex concentration 1 µM, backbone: PO-PO (both strands phosphodiester DNA)) of 78.3 ± 0.4 °C, a duplex melting temperature ([2]; duplex concentration 1 µM, backbone: PS-PO (listed strand fully phosphorothioate, complement phosphodiester)) of 71.41 ± 0.5 °C and a duplex melting temperature [2, 8] of 62.3 ± 0.89 °C. For the same sequence, the duplex melting temperature [2, 9] was 79.54 ± 0.39 °C, the duplex melting temperature [2, 10] was 72.56 ± 0.53 °C and the duplex melting temperature [2, 11] was 64.34 ± 0.43 °C. It also gave a duplex melting temperature [2, 12] of 80.55 ± 0.61 °C, a duplex melting temperature [2, 13] of 73.83 ± 0.46 °C and a duplex melting temperature [2, 14] of 65.81 ± 0.35 °C. The duplex melting temperature [2, 15] was 81.42 ± 0.21 °C, the duplex melting temperature [2, 16] was 74.22 ± 0.47 °C and the duplex melting temperature [2, 17] was 66.74 ± 0.11 °C. For the same sequence, the duplex melting temperature [2, 18] was 82.09 ± 0.11 °C, the duplex melting temperature [2, 19] was 74.81 ± 0.22 °C and the duplex melting temperature [2, 20] was 67.319 ± 0.064 °C. The duplex melting temperature [2, 21] was 82.922 ± 0.079 °C, the duplex melting temperature [2, 22] was 75.66 ± 0.16 °C and the duplex melting temperature [2, 23] was 67.904 ± 0.048 °C. It also gave a duplex melting temperature [2, 24] of 83.591 ± 0.062 °C, a duplex melting temperature [2, 25] of 76.275 ± 0.049 °C and a duplex melting temperature [2, 26] of 68.51 ± 0.1 °C. The “duplex formation enthalpy ΔH” value [3, 5] was -141 ± 8.4 kcal/mol, the “duplex formation enthalpy ΔH” value [3, 6] was -149 ± 7.5 kcal/mol and the “duplex formation enthalpy ΔH” value [3, 7] was -112 ± 3.5 kcal/mol. The “duplex formation entropy ΔS” value [4, 5] was -372 ± 24 cal/mol/K, the “duplex formation entropy ΔS” value [4, 6] was -404 ± 22 cal/mol/K and the “duplex formation entropy ΔS” value [4, 7] was -303 ± 10 cal/mol/K.

For CAAGCCTCGATTTTGT, the “duplex formation free energy ΔG50” value [1, 5] was -12.29 ± 0.11 kcal/mol, the “duplex formation free energy ΔG50” value [1, 6] was -10.63 ± 0.052 kcal/mol and the “duplex formation free energy ΔG50” value [1, 7] was -9.148 ± 0.028 kcal/mol. It also gave a duplex melting temperature [2, 8] of 46.56 ± 0.31 °C, a duplex melting temperature [2, 9] of 64.39 ± 0.47 °C and a duplex melting temperature [2, 10] of 56.69 ± 0.17 °C. The duplex melting temperature [2, 11] was 50.11 ± 0.18 °C, the duplex melting temperature [2, 12] was 66.83 ± 0.17 °C and the duplex melting temperature [2, 13] was 58.85 ± 0.28 °C. It also gave a duplex melting temperature [2, 14] of 52.41 ± 0.077 °C, a duplex melting temperature [2, 15] of 68.04 ± 0.08 °C and a duplex melting temperature [2, 16] of 60.19 ± 0.34 °C. For the same sequence, the duplex melting temperature [2, 17] was 53.632 ± 0.045 °C, the duplex melting temperature [2, 18] was 68.83 ± 0.17 °C and the duplex melting temperature [2, 19] was 60.95 ± 0.27 °C. The duplex melting temperature [2, 20] was 54.55 ± 0.083 °C, the duplex melting temperature [2, 21] was 70.12 ± 0.2 °C and the duplex melting temperature [2, 22] was 62.25 ± 0.24 °C. It also gave a duplex melting temperature [2, 23] of 55.802 ± 0.033 °C, a duplex melting temperature [2, 24] of 71.17 ± 0.15 °C and a duplex melting temperature [2, 25] of 63.14 ± 0.43 °C. The duplex melting temperature [2, 26] was 56.6 ± 0.35 °C, the “duplex formation enthalpy ΔH” value [3, 5] was -72.5 ± 2.1 kcal/mol and the “duplex formation enthalpy ΔH” value [3, 6] was -71.3 ± 1.6 kcal/mol. The “duplex formation enthalpy ΔH” value [3, 7] was -63.1 ± 2.1 kcal/mol, the “duplex formation entropy ΔS” value [4, 5] was -186 ± 6 cal/mol/K and the “duplex formation entropy ΔS” value [4, 6] was -188 ± 4.9 cal/mol/K. The “duplex formation entropy ΔS” value [4, 7] was -167 ± 6.5 cal/mol/K.
